# Assay results: patent publication US5985836A, “Alpha-1 proteinase inhibitor binding peptides” (Bayer Corporation, priority 1998, dated 1999)
# Ends that are not written are not given here.
# What was measured:
# A1PI [1] = target: T1, A1PI (Homo sapiens, UniProt P01009); experiment: A1PI binding on peptide-resin column, injection of 1 mg A1PI in equilibration buffer; conditions: 1 mg A1PI in equilibration buffer; for Percent A1PI Eluted by Fraction Based on Absorbance at 280 nm, 1M NaCl / Percent A1PI Eluted by Fraction Based on Absorbance at 280 nm, 2% Acetic Acid / Percent A1PI Eluted by Fraction Based on Absorbance at 280 nm, Flowthrough: 4° C.; for Percent A1PI Eluted by Fraction, 1M NaCl / Percent A1PI Eluted by Fraction, 2% Acetic Acid / Percent A1PI Eluted by Fraction, Flowthrough: 20° C.
# T1 construct: Human plasma is currently the only approved source of therapeutic AlPI
# Method in brief: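 Peptides synthesized on A-Totda-Toyopearl chelate resin (0.1 mmole/g) packed in 0.4×5 cm columns; 1 mg A1PI injected in equilibration buffer at 4 °C or 20 °C, 865 or 523 μl/min. Flowthrough, 1M/3M NaCl washes and 2% acetic acid eluate quantified by A280 or immunonephelometry as percent of total eluted.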
# A1PI [2] = target: T1, A1PI; experiment: A1PI purification from 5 mg hSA + 1 mg A1PI on peptide column, A1PI mass balance; type: binding; conditions: A1PI, 5 mg hSA + 1 mg A1PI; for Percent Eluted by Fraction, 1M NaCl / Percent Eluted by Fraction, 2% Ac. Acid / Percent Eluted by Fraction, 3M NaCl / Percent Eluted by Fraction, Flow: relative to total eluted
# Description: Confirmatory binding assays were performed in a column chromatographic format on a microbore HPLC using individual peptide sequences synthesized directly onto the Toyopearl 650 M Chelate resin which had been modified with Totda followed by an alanine residue (A-Totda-Toyopearl), at a final substitution density of 0.1 mmole/g resin. The resin was packed into 0.4×5 cm columns (Thomson, Springfield, Va.) and tested on the Michrom HPLC system (Michrom BioResources, Auburn, Calif.). The elution program for all trials utilized the following method. The column was pre-equilibrated with equilibration buffer (as above). 1 ml of sample was injected and allowed sufficient time to flowthrough the column using equilibration buffer. The column was then washed with step elutions of 1M NaCl and 3M NaCl in equilibration buffer. The column was exposed to equilibration buffer with 0.1M NaCl. Any remaining protein was eluted with elution buffer (2% by volume glacial acetic acid in water).
# A Gilson FC204 fraction collector at the HPLC outlet collected individual eluates for further analysis. Fractions collected from the 2% acetic acid eluates were neutralized with 2M Tris, pH 10.5 to bring the pH to neutrality. The protein samples were reconstituted in equilibration buffer unless otherwise stated. The samples were analyzed by the integration of the absorbance at 280 nm or by immunonephelometry. The specific method of determination is presented for each figure.
# Columns were assayed with a mixture of 5 mg human serum albumin (hSA)+1 mg AlPI at 4° C. (Table 4, Seq. ID 1-11, 15, 17) and 20° C. (Table 5, Seq. ID 1-10, 13, 15, 17). The chromatography method was modified to provide for a 10 minute residence time of sample in the column by decreasing the flow to 17 μl/min (10 cm/hr) upon injection. Following the incubation, the flow was set at 865 μl/min (413 cm/hr) for the step elutions of 1M NaCl, 3M NaCl, and 2% acetic acid. The mass balances presented are based upon immunonephelometry. The Percent Eluted value is protein-specific and based on the amount of the protein eluted in a […]
# A1PI [3] = target: T1, A1PI; experiment: Purification of A1PI from Effluent II+III on peptide column, A1PI mass balance; type: binding; conditions: A1PI, 1 ml Eff. II+III, 4° C.; for Mass Protein per Eluate Fraction, 1M NaCl / Mass Protein per Eluate Fraction, 2% Acetic Acid / Mass Protein per Eluate Fraction, Flow: * as in Tables 4, 5 (below detection limit)
# Description: (§1) Sequences 1-11 and 15 were assayed with Effluent II+III (Eff. II+III). Eff. II+III is a process intermediate in the Cohn plasma fractionation process. The feed stream contains 20% (by volume) ethanol, 20-25 mg/ml hSA and approximately 1 mg/ml AlPI. The stream also contains other proteins including anti-thrombin III (AT3), immunoglobin G (IgG), immunoglobin A (IgA), apolipoprotein alpha-1 (Apo A-1), transferrin (Trf), haptoglobin (Hpt), and alpha-1 acid glycoprotein (AAG) at concentrations ranging from 0.1-1 mg/ml.
# (§2) The columns were assayed using the same technique as the hSA+AlPI experiments, allowing for a 10 minute residence time followed by a constant flow rate of 865 μl/min with step elutions of 1M NaCl, 3M NaCl, and 2% acetic acid. All experiments were conducted at 4° C. The mass balances for the injection of 1 ml Eff. […] The AlPI was enriched from 3% of the total protein in the feed to upwards of 50% in the acid eluate.
# [4] = target: T2, apolipoprotein alpha-1 (Apo A-1) (Homo sapiens, UniProt P02647); experiment: Purification from Effluent II+III, Apo A-1 mass balance; type: binding; conditions: 1 ml Eff. II+III, 4° C.
# T2 construct: Eff; II+III is a process intermediate in the Cohn plasma fractionation process; tissue Bayer Corporation (Clayton, N.C.); host or cells: plasma fraction: Cohn Effluent II+III
# Description: as §1, §2
# Immunoglobulin A (IgA) = experiment: Purification from Effluent II+III, IgA mass balance; type: binding, human; conditions: 1 ml Eff. II+III, 4° C.; for Mass Protein per Eluate Fraction, 1M NaCl / Mass Protein per Eluate Fraction, 2% Acetic Acid / Mass Protein per Eluate Fraction, Flow: * as in Tables 4, 5 (below detection limit)
# Description: as §1, §2
# Immunoglobulin G (IgG) = experiment: Purification from Effluent II+III, IgG mass balance; type: binding, human; conditions: 1 ml Eff. II+III, 4° C.
# Description: as §1, §2
# [5] = * as in Tables 4, 5 (below detection limit)
# [6] = 20° C., * Below detection limit
# T2 sequence (P02647 19-267): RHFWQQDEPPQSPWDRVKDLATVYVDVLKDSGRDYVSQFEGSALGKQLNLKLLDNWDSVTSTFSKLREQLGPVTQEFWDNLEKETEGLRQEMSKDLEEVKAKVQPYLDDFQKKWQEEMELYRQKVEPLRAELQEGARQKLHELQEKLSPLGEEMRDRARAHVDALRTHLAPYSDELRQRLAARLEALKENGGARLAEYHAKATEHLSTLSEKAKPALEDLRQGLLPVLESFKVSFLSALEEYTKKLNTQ
# T1 sequence (P01009 25-418): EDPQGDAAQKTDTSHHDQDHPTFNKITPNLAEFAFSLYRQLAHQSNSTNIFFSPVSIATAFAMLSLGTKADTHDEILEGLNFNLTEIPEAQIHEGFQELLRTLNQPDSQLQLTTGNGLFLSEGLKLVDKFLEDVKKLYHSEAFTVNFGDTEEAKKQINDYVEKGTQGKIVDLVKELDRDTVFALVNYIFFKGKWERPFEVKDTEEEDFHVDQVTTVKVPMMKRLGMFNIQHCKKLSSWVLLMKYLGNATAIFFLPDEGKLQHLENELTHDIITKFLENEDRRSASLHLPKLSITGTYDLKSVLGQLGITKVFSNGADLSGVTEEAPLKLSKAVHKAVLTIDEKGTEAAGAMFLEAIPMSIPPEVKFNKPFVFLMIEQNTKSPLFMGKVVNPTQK
substance,measurement,setting,value
QYHFWY,"Percent A1PI Eluted by Fraction Based on Absorbance at 280 nm, 1M NaCl",A1PI [1],74%
same,"Percent A1PI Eluted by Fraction Based on Absorbance at 280 nm, 2% Acetic Acid",A1PI [1],26%
same,"Percent A1PI Eluted by Fraction Based on Absorbance at 280 nm, Flowthrough",A1PI [1],0%
same,"Percent A1PI Eluted by Fraction, 1M NaCl",A1PI [1],0%
same,"Percent A1PI Eluted by Fraction, 2% Acetic Acid",A1PI [1],4%
same,"Percent A1PI Eluted by Fraction, Flowthrough",A1PI [1],96%
same,"Mass Protein per Eluate Fraction, 1M NaCl","A1PI [2]; 4° C., * Below detection limit",0.35 mg
same,"Mass Protein per Eluate Fraction, 2% Ac. Acid","A1PI [2]; 4° C., * Below detection limit",0.35 mg
same,"Mass Protein per Eluate Fraction, Flow","A1PI [2]; 4° C., * Below detection limit",0.06 mg
same,"Percent Eluted by Fraction, 1M NaCl",A1PI [2]; 4° C.,46%
same,"Percent Eluted by Fraction, 2% Ac. Acid",A1PI [2]; 4° C.,46%
same,"Percent Eluted by Fraction, 3M NaCl",A1PI [2]; 4° C.,0%
same,"Percent Eluted by Fraction, Flow",A1PI [2]; 4° C.,7%
same,"Percent Eluted by Fraction, 1M NaCl",A1PI [3],6%
same,"Percent Eluted by Fraction, 2% Acetic Acid",A1PI [3],75%
same,"Percent Eluted by Fraction, 3M NaCl",A1PI [3],0%
same,"Percent Eluted by Fraction, Flow",A1PI [3],20%
same,"Mass Protein per Eluate Fraction, 1M NaCl",A1PI [3],0.06 mg
same,"Mass Protein per Eluate Fraction, 2% Acetic Acid",A1PI [3],0.80 mg
same,"Mass Protein per Eluate Fraction, Flow",A1PI [3],0.21 mg
same,"Percent Eluted by Fraction, 1M NaCl",[4],0%
same,"Percent Eluted by Fraction, 2% Acetic Acid",[4],0%
same,"Percent Eluted by Fraction, 3M NaCl",[4],0%
same,"Percent Eluted by Fraction, Flow",[4],0%
same,"Percent Eluted by Fraction, 1M NaCl",Immunoglobulin A (IgA),31%
same,"Percent Eluted by Fraction, 2% Acetic Acid",Immunoglobulin A (IgA),38%
same,"Percent Eluted by Fraction, 3M NaCl",Immunoglobulin A (IgA),0%
same,"Percent Eluted by Fraction, Flow",Immunoglobulin A (IgA),31%
same,"Mass Protein per Eluate Fraction, 1M NaCl",Immunoglobulin A (IgA),0.11 mg
same,"Mass Protein per Eluate Fraction, 2% Acetic Acid",Immunoglobulin A (IgA),0.13 mg
same,"Mass Protein per Eluate Fraction, Flow",Immunoglobulin A (IgA),0.11 mg
same,"Percent Eluted by Fraction, 1M NaCl",Immunoglobulin G (IgG),10%
same,"Percent Eluted by Fraction, 2% Acetic Acid",Immunoglobulin G (IgG),0%
same,"Percent Eluted by Fraction, 3M NaCl",Immunoglobulin G (IgG),0%
same,"Percent Eluted by Fraction, Flow",Immunoglobulin G (IgG),90%
same,"Mass Protein per Eluate Fraction, 1M NaCl",Immunoglobulin G (IgG); [5],0.02 mg
same,"Mass Protein per Eluate Fraction, Flow",Immunoglobulin G (IgG); [5],0.21 mg
YKFRFW,"Percent A1PI Eluted by Fraction Based on Absorbance at 280 nm, 1M NaCl",A1PI [1],64%
same,"Percent A1PI Eluted by Fraction Based on Absorbance at 280 nm, 2% Acetic Acid",A1PI [1],36%
same,"Percent A1PI Eluted by Fraction Based on Absorbance at 280 nm, Flowthrough",A1PI [1],0%
same,"Percent A1PI Eluted by Fraction, 1M NaCl",A1PI [1],75%
same,"Percent A1PI Eluted by Fraction, 2% Acetic Acid",A1PI [1],25%
same,"Percent A1PI Eluted by Fraction, Flowthrough",A1PI [1],0%
same,"Mass Protein per Eluate Fraction, 1M NaCl","A1PI [2]; 4° C., * Below detection limit",0.28 mg
same,"Mass Protein per Eluate Fraction, 2% Ac. Acid","A1PI [2]; 4° C., * Below detection limit",0.46 mg
same,"Mass Protein per Eluate Fraction, 3M NaCl","A1PI [2]; 4° C., * Below detection limit",0.04 mg
same,"Percent Eluted by Fraction, 1M NaCl",A1PI [2]; 4° C.,36%
same,"Percent Eluted by Fraction, 2% Ac. Acid",A1PI [2]; 4° C.,60%
same,"Percent Eluted by Fraction, 3M NaCl",A1PI [2]; 4° C.,5%
same,"Percent Eluted by Fraction, Flow",A1PI [2]; 4° C.,0%
same,"Mass Protein per Eluate Fraction, 1M NaCl",A1PI [2]; [6],0.16 mg
same,"Mass Protein per Eluate Fraction, 2% Ac. Acid",A1PI [2]; [6],0.30 mg
same,"Mass Protein per Eluate Fraction, Flow",A1PI [2]; [6],0.41 mg
same,"Percent Eluted by Fraction, 1M NaCl",A1PI [2]; 20° C.,18%
same,"Percent Eluted by Fraction, 2% Ac. Acid",A1PI [2]; 20° C.,34%
same,"Percent Eluted by Fraction, 3M NaCl",A1PI [2]; 20° C.,0%
same,"Percent Eluted by Fraction, Flow",A1PI [2]; 20° C.,48%
same,"Percent Eluted by Fraction, 1M NaCl",A1PI [3],5%
same,"Percent Eluted by Fraction, 2% Acetic Acid",A1PI [3],81%
same,"Percent Eluted by Fraction, 3M NaCl",A1PI [3],0%
same,"Percent Eluted by Fraction, Flow",A1PI [3],14%
same,"Mass Protein per Eluate Fraction, 1M NaCl",A1PI [3],0.06 mg
same,"Mass Protein per Eluate Fraction, 2% Acetic Acid",A1PI [3],0.92 mg
same,"Mass Protein per Eluate Fraction, Flow",A1PI [3],0.16 mg
same,"Percent Eluted by Fraction, 1M NaCl",[4],0%
same,"Percent Eluted by Fraction, 2% Acetic Acid",[4],100%
same,"Percent Eluted by Fraction, 3M NaCl",[4],0%
same,"Percent Eluted by Fraction, Flow",[4],0%
same,"Mass Protein per Eluate Fraction, 2% Acetic Acid",[4]; [5],0.31 mg
same,"Percent Eluted by Fraction, 1M NaCl",Immunoglobulin A (IgA),33%
same,"Percent Eluted by Fraction, 2% Acetic Acid",Immunoglobulin A (IgA),30%
same,"Percent Eluted by Fraction, 3M NaCl",Immunoglobulin A (IgA),0%
same,"Percent Eluted by Fraction, Flow",Immunoglobulin A (IgA),37%
same,"Mass Protein per Eluate Fraction, 1M NaCl",Immunoglobulin A (IgA),0.11 mg
same,"Mass Protein per Eluate Fraction, 2% Acetic Acid",Immunoglobulin A (IgA),0.10 mg
same,"Mass Protein per Eluate Fraction, Flow",Immunoglobulin A (IgA),0.13 mg
